The values below are quoted from earlier work in publication PMC7785802, “Therapeutic Efficacy of a Trichinella Spiralis Paramyosin-Derived Peptide Modified With a Membrane-Targeting Signal in Mice With Antigen-Induced Arthritis” (Frontiers in Microbiology, 2020).

The series deals with antigen-induced arthritis (AIA). The settings on record: intraarticular injection prior to disease onset or at disease flares, animal models, Williams et al., 2004, Durigutto et al., 2013. The source says: As MAC is a therapeutic target in RA, complement inhibitors have shown potential for preventing and treating arthritis in animal models (Goodfellow et al., [2000]; Durigutto et al., [2013]). Moreover, local or targeted inhibition might be an effective way to circumvent the adverse effects of systemic complement inhibition. […] More precisely, intraarticular injection of membrane-targeted CD59 or Fc fusio ... || RA is an autoimmune disease that has been confirmed to involve inappropriate complement activation in the joint cavity, making the delivery of anti-complement drugs into the joint cavity an ideal therapeutic strategy to relieve RA progression (Dijkstra et al., [2019]). […] Murine AIA, a well-recognized acute complement-dependent arthritis, imitates the pathology of RA (van den Berg et al., [2007]). As complement activation is involved in the process of AIA, this model has been utilized in many studies to assess the therapeutic efficacy of complement inhibitors that might affect various stages of complement activation. In animal models, intraarticular injection of complement inhibitors (including sCR1, CD59, and anti-C5 neutralizing recombinant mini-antibody) prior to ...

Where two headings read alike, the source gives them in different places.

B1: CD59: a heavily glycosylated protein of 20 kDa that can specifically inhibit MAC formation (protein, UniProt P13987 26-102, looked up)
CD59 glycoprotein: LQCYNCPNPTADCKTAVNCSSDFDACLITKAGLQVYNKCWKFEHCNFNDVTTRLRENELTYYCCKKDLCNFNEQLEN
Consider B1, for which the “effect on joint swelling and development of AIA” value runs as follows: (ref Goodfellow et al., 2000) “alleviate joint swelling and the development of AIA”; (ref Harris et al., 2002) “alleviate joint swelling and the development of AIA”.
